Experimental data: patent publication US20260000780A1, “B-LYMPHOCYTE SPECIFIC AMATOXIN ANTIBODY CONJUGATES” (priority 2021, published 2026)

B1: conjugate XXVI (conjugate)
heavy: EIQLQQSGPELVKPGASVKVSCKASGYSFTDYNMYWVKQSHGKSLEWIGYIDPYNGDTTYNQKFKGKATLTVDKSSSTAFIHLNSLTSEDSAVYYCARSPYGHYAMDYWGQGTSVTVSSASTKGPSVFPLAPSSKSTSGGTAALGCLVKDYFPEPVTVSWNSGALTSGVHTFPAVLQSSGLYSLSSVVTVPSSSLGTQTYICNVNHKPSNTKVDKKVEPKSCDKTHTCPPCPAPEAAGGPSVFLFPPKPKDTLMISRTPEVTCVVVCVSHEDPEVKFNWYVDGVEVHNAKTKPREEQYNSTYRVVSVLTVLHQDWLNGKEYKCKVSNKALPAPIEKTISKAKGQPREPQVYTLPPSREEMTKNQVSLTCLVKGFYPSDIAVEWESNGQPENNYKTTPPVLDSDGSFFLYSKLTVDKSRWQQGNVFSCSVMHEALHNHYTQKSLSLSPGK
light: DIVMTQSHKLLSTSVGDRVSITCKASQDVSTAVDWYQQKPGQSPKLLINWASTRHTGVPDRFTGSGSGTDYTLTISSMQAEDLALYYCRQHYSTPFTFGSGTKLEIKRTVAAPSVFIFPPSDEQLKSGTASVVCLLNNFYPREAKVQWKVDNALQSGNSQESVTEQDSKDSTYSLSSTLTLSKADYEKHKVYACEVTHQGLSSPVTKSFNRGEC
B2: Conjugate XXIV (conjugate)
heavy: B1 heavy
light: B1 light
B3: Conjugate XXV (conjugate)
heavy chain: B1 heavy
light chain: B1 light

Tests used:
[1] = test system: MEC-2 tumor xenograft; experiment: Disseminated MEC-2 tumor xenograft model; assay type: in vivo, CB17 Scid mice; details: day 138 after treatment
Description: Cytotoxic efficacy studies in vivo were performed using various anti-CD37 antibody amatoxin conjugates in a disseminated MEC-2 tumor xenograft model over 140 days of treatment.
Tumor cell inoculation was done on day −3 by i.v. injection of 2.5×10^6 MEC-2 cells in CB17 Scid mice. Treatment was performed on day 0 by single dose i.v. injection at maximum tolerable dose (MTD) of ⅛ and MTD of 1/16 doses, respectively. Readout of the study was body weight and survival. Results are shown in FIG. 10 (body weight) and FIG. 11 (survival) at day 138 after treatment. All groups treated with conjugate gained body weight as normal, in contrast to the control group.
Treatment groups are defined in Table 4. Group 10 (chHH1-HDP-LALA-D265C, p.o., single dose; 10 mg/kg) was excluded from analysis. Group 11 (Ibrutinib) was treated with Ibrutinib p.o. 5x/w for 3 weeks at a dose 25 mg/kg.

[2] = target: RNA-polymerase II (Homo sapiens, UniProt P24928+P30876); details: read-out: KD of the complex between amanitin and RNA-polymerase II; cited from earlier work
[3] = test system: Richter syndrome cells (PDX RS1316); experiment: Richter's syndrome patient-derived xenograft (PDX) model, intravenous; assay type: in vivo, CB17 Scid mice; details: for efficacy in treating RS / tolerability of a single dose: single dose at different doses, 15 days post engraftment
Description: The patient-derived xenograft (PDX) model for Richter's syndrome were adapted from Cancer Res (2018); 78 (13); 3413-20 with modifications.
Briefly, a total of 2×10^7 primary Richter syndrome cells from peripheral blood or lymph nodes were resuspended in Matrigel (BD Biosciences) and subcutaneously injected (double flank) in 8-week old CB17 Scid mice immunocompromised mice and left to engraft. Tumor masses were then collected, partially disrupted, and tumor cells reinjected as a single-cell suspension in Matrigel. These steps were repeated several times to obtain stable models of Richter syndrome.
For the intravenous model, 10^7 Richter syndrome cells purified from tumor masses were resuspended in PBS and injected in the tail vein of the mice. Mice were injected with a single dose of the conjugates XXIII, XXIV, or XXVI as indicated. All mice within the PBS control group died within 68 days post engraftment. One animal in the group receiving conjugate XXVI at a dose of 5 mg/kg i.v. died at day 90 post engraftment.
To assess residual RS disease activity in the organs of engrafted animals mice were euthanized and peripheral blood and organs (kidneys, spleen, bone marrow, lung, liver, and brain) collected and disease spread evaluated by flow cytometry, using anti-human antibodies (CD45PerCPCy5.5/CD19APC/CD20FITC).

[4] = test system: Raji-Luc tumor xenograft; experiment: Disseminated Raji-Luc tumor xenograft model; assay type: in vivo, CB17 Scid mice; details: single dose i.v., day 89 after treatment
Description: Cytotoxic efficacy studies in vivo were performed using various anti-CD37 antibody amatoxin conjugates in a disseminated Raji-Luc tumor xenograft model over 89 days of treatment.
Tumor cell inoculation was done on day-3 by i.v. injection of 2.5×10^6 Raji-Luc cells in CB17 Scid mice. Treatment was performed on day 0 by single dose i.v. injection at maximum tolerable dose (MTD) of 1/16 and MTD of 1/64 doses of cynomolgus MTD, respectively. Readout of the study was body weight, bioluminescence and survival. Results are shown in FIG. 10 (body weight), FIG. 11 (bioluminescence) and FIG. 12 (survival) at day 89 after treatment. All groups treated with conjugate gained body weight as normal, in contrast to the control group.

Molecule | efficacy in treating RS [3] | tolerability of a single dose [3] | Alive animals ([4]; 0.188 mg/kg (MTD 1/64)) | Alive animals ([4]; 0.75 mg/kg (MTD 1/16)) | also measured
C=CC(=O)N1CCC[C@@H](n2nc(-c3ccc(Oc4ccccc4)cc3)c3c(N)ncnc32)C1 [Ibrutinib, reference compound] | – | – | – | – | Alive animals ([1]; 25 mg/kg p.o. 5×/w for 3 weeks): 0/10
amanitin | – | – | – | – | Kd [2]: 3 nM
B1 | effective in treating RS | well tolerated | – | – | animals that died in the treated group ([3]; 5 mg/kg i.v. single dose, n=4, death at day 90 post engraftment): One animal
B2 | effective in treating RS | well tolerated | 9/10 | 10/10 | Alive animals ([1]; 1.25 mg/kg (MTD 1/16), i.v. single dose): 4/10; Alive animals ([1]; 2.5 mg/kg (MTD 1/8), i.v. single dose): 6/10; residual RS disease activity in organs (flow cytometry CD45/CD19/CD20) ([3]; single dose, 5 mg): significantly reduce
B3 | – | – | 9/10 | 10/10 | Alive animals ([1]; 0.94 mg/kg (MTD 1/16), i.v. single dose): 8/10; Alive animals ([1]; 1.88 mg/kg (MTD 1/8), i.v. single dose): 9/10
